Consider one molecule from patent publication US20170210818A1 (CALIFORNIA INSTITUTE FOR BIOMEDICAL RESEARCH, published 2017).

The test deals with T1, CD19 on Nalm-6 cells (UniProt P15391 20-556, limits assumed).
T1 construct: whole, on cells; also called Nalm-6 cells (CD19 positive cells)
T1 sequence (looked up): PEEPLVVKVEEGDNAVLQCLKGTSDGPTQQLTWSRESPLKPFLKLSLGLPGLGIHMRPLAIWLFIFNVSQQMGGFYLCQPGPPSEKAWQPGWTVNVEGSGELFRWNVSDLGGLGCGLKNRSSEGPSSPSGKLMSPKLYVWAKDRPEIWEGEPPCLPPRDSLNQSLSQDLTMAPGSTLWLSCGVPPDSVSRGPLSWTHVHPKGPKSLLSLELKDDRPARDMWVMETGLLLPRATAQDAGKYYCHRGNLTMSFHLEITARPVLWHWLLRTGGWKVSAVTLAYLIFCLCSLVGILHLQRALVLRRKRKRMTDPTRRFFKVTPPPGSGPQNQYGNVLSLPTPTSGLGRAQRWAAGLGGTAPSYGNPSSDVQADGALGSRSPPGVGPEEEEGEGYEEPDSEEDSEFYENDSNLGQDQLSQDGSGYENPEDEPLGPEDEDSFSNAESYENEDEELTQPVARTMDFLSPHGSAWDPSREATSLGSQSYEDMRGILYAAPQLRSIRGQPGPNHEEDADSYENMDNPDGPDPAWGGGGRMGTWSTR
Put plainly: flow cytometry on Nalm-6 cells, 10 nM, fluorescent anti-human IgG secondary antibody.

Description: Nalm-6 and K562 cells were cultured according to vendor's protocol. Cells were centrifuged and blocked in 1× PBS with 10% FBS at 4° C. for 1 hour. […] The cell suspensions were shaken for 1 hour at 4° C. The cells were washed 3 times with PBS. The cells were incubated with a secondary antibody (e.g., Fluorescein-anti-human IgG or A488-anti-hIgG) at 4° C. for 1 hour. The cells were washed 3 times with PBS and resuspended in PBS. The cellular fluorescence distribution was determined by flow cytometry.

B1: anti-CD19ScFv-UCHT1-CL(Fab) (bispecific antibody)
heavy: EVQLQQSGPELVKPGASMKISCKASGYSFTGYTMNWVKQSHGKNLEWMGLINPYKGVSTYNQKFKDKATLTVDKSSSTAYMELLSLTSEDSAVYYCARSGYYGDSDWYFDVWGQGTTLTVFSASTKGPSVFPLAPSSKSTSGGTAALGCLVKDYFPEPVTVSWNSGALTSGVHTFPAVLQSSGLYSLSSVVTVPSSSLGTQTYICNVNHKPSNTKVDKKVEPKSC
light: DIQMTQTTSSLSASLGDRVTISCRASQDIRNYLNWYQQKPDGTVKLLIYYTSRLHSGVPSKFSGSGSGTDYSLTISNLEQEDIATYFCQQGNTLPWTFAGGTKLEIKRTVAAPSVFIFPPSDEQLKSGTASVVCLLNNFYPREAKVQWKVDNALQSGNSQESVTEQDSGGGGSGGGGSGGGGSEVKLQESGPGLVAPSQSLSVTCTVSGVSLPDYGVSWIRQPPRKGLEWLGVIWGSETTYYNSALKSRLTIIKDNSKSQVFLKMNSLQTDDTAIYYCAKHYYYGGSYAMDYWGQGTSVTVSSGGGGSGGGGSGGGGSDIQMTQTTSSLSASLGDRVTISCRASQDISKYLNWYQQKPDGTVKLLIYHTSRLHSGVPSRFSGSGSGTDYSLTISNLEQEDIATYFCQQGNTLPYTFGGGTKLEIGGGGSDSTYSLSSTLTLSKADYEKHKVYACEVTHQGLSSPVTKSFNRGEC
On to B1, for which the binding result was “binds”.
